According to the supplement of paper PMC11246515:
± gives the standard deviation of the averaged measurements.

Experiment: total protein half-life in vivo (active degradation + dilution); higher = more stable protein
[1] = E. coli NCM3722 delta-clpP delta-lon delta-hslV, growth: N-lim chemostat, doubling time 6 h
[2] = E. coli NCM3722 delta-lon, growth: N-lim chemostat, doubling time 6 h
[3] = E. coli NCM3722 delta-smpB, growth: N-lim chemostat, doubling time 6 h
[4] = wild type E. coli NCM3722, growth: C-lim chemostat, doubling time 3 h
[5] = wild type E. coli NCM3722, growth: N-lim chemostat, doubling time 6 h
[6] = wild type E. coli NCM3722, growth: P-lim chemostat, doubling time 12 h
[7] = E. coli NCM3722 delta-clpP, growth: N-lim chemostat, doubling time 6 h
[8] = E. coli NCM3722 delta-hslV, growth: N-lim chemostat, doubling time 6 h
[9] = wild type E. coli NCM3722, growth: C-lim chemostat, doubling time 6 h
[10] = wild type E. coli NCM3722, growth: C-lim chemostat, doubling time 12 h
[11] = wild type E. coli NCM3722, growth: N-lim chemostat, doubling time 12 h
[12] = wild type E. coli NCM3722, growth: P-lim chemostat, doubling time 6 h

Sequence	total protein half-life in vivo [1] [h]	total protein half-life in vivo [2] [h]	total protein half-life in vivo [3] [h]	total protein half-life in vivo [4] [h]	total protein half-life in vivo [5] [h]	total protein half-life in vivo [6] [h]	total protein half-life in vivo [7] [h]	total protein half-life in vivo [8] [h]	total protein half-life in vivo [9] [h]	total protein half-life in vivo [10] [h]	total protein half-life in vivo [11] [h]	total protein half-life in vivo [12] [h]
MSEPLDLNQLAQKIKQWGLELGFQQVGITDTDLSESEPKLQAWLDKQYHGEMDWMARHGMLRARPHELLPGTLRVISVRMNYLPANAAFASTLKNPKLGYVSRYALGRDYHKLLRNRLKKLGEMIQQHCVSLNFRPFVDSAPILERPLAEKAGLGWTGKHSLILNREAGSFFFLGELLVDIPLPVDQPVEEGCGKCVACMTICPTGAIVEPYTVDARRCISYLTIELEGAIPEELRPLMGNRIYGCDDCQLICPWNRYSQLTTEEDFSPRKPLHAPELIELFAWSEEKFLKVTEGSAIRRIGHLRWLRNIAVALGNAPWDETILTALESRKGEHPLLDEHIAWAIAQQIERRNACIVEVQLPKKQRLVRVIEKGLPRDA	5.59 ± 0.68	2.85 ± 0.33	1.41	> 4	1.85	3.79						
MKLTLKNLSMAIMMSTIVMGSSAMAADSNEKIVIAHRGASGYLPEHTLPAKAMAYAQGADYLEQDLVMTKDDNLVVLHDHYLDRVTDVADRFPDRARKDGRYYAIDFTLDEIKSLKFTEGFDIENGKKVQTYPGRFPMGKSDFRVHTFEEEIEFVQGLNHSTGKNIGIYPEIKAPWFHHQEGKDIAAKTLEVLKKYGYTGKDDKVYLQCFDADELKRIKNELEPKMGMELNLVQLIAYTDWNETQQKQPDGSWVNYNYDWMFKPGAMKQVAEYADGIGPDYHMLIEETSQPGNIKLTGMVQDAQQNKLVVHPYTVRSDKLPEYTPDVNQLYDALYNKAGVNGLFTDFPDKAVKFLNKE	5.71 ± 0.74	7.08 ± 0.86	4.739 ± 0.036	3.12 ± 0.32	5.53 ± 0.091	11.7 ± 0.17	6.03 ± 0.55	5.36 ± 0.34	6.48 ± 0.5	11.4 ± 0.14	10.9 ± 1.6	5.23 ± 0.11
MSILYEERLDGALPDVDRTSVLMALREHVPGLEILHTDEEIIPYECDGLSAYRTRPLLVVLPKQMEQVTAILAVCHRLRVPVVTRGAGTGLSGGALPLEKGVLLVMARFKEILDINPVGRRARVQPGVRNLAISQAVAPHNLYYAPDPSSQIACSIGGNVAENAGGVHCLKYGLTVHNLLKIEVQTLDGEALTLGSDALDSPGFDLLALFTGSEGMLGVTTEVTVKLLPKPPVARVLLASFDSVEKAGLAVGDIIANGIIPGGLEMMDNLSIRAAEDFIHAGYPVDAEAILLCELDGVESDVQEDCERVNDILLKAGATDVRLAQDEAERVRFWAGRKNAFPAVGRISPDYYCMDGTIPRRALPGVLEGIARLSQQYDLRVANVFHAGDGNMHPLILFDANEPGEFARAEELGGKILELCVEVGGSISGEHGIGREKINQMCAQFNSDEITTFHAVKAAFDPDGLLNPGKNIPTLHRCAEFGAMHVHHGHLPFPELERF [P0AEP9]				1.69 ± 0.022		5.7 ± 3.1			3.62 ± 0.18	5.4 ± 0.53		2.38 ± 0.24
MVKERKTELVEGFRHSVPYINTHRGKTFVIMLGGEAIEHENFSSIVNDIGLLHSLGIRLVVVYGARPQIDANLAAHHHEPLYHKNIRVTDAKTLELVKQAAGTLQLDITARLSMSLNNTPLQGAHINVVSGNFIIAQPLGVDDGVDYCHSGRIRRIDEDAIHRQLDSGAIVLMGPVAVSVTGESFNLTSEEIATQLAIKLKAEKMIGFCSSQGVTNDDGDIVSELFPNEAQARVEAQEEKGDYNSGTVRFLRGAVKACRSGVRRCHLISYQEDGALLQELFSRDGIGTQIVMESAEQIRRATINDIGGILELIRPLEQQGILVRRSREQLEMEIDKFTIIQRDNTTIACAALYPFPEEKIGEMACVAVHPDYRSSSRGEVLLERIAAQAKQSGLSKLFVLTTRSIHWFQERGFTPVDIDLLPESKKQLYNYQRKSKVLMADLG [P0A6C5]	4.95 ± 0.5	3.628 ± 0.028	1.13 ± 0.066	1.99 ± 0.036	2.59 ± 0.25	8.35 ± 0.32	3.02 ± 0.23	2.23 ± 0.15	3.29 ± 0.41	5.24 ± 0.21	4.01 ± 0.54	4.56 ± 0.38
MNISDVAKITGLTSKAIRFYEEKGLVTPPMRSENGYRTYTQQHLNELTLLRQARQVGFNLEESGELVNLFNDPQRHSADVKRRTLEKVAEIERHIEELQSMRDQLLALANACPGDDSADCPIIENLSGCCHHRAG [P0A9G4]	4.71 ± 0.63	2.12 ± 0.77		1.3		2.28 ± 0.59	1.45		1.95	2.21	1.07	0.945
MWKRLLIVSAVSAAMSSMALAAPLTVGFSQVGSESGWRAAETNVAKSEAEKRGITLKIADGQQKQENQIKAVRSFVAQGVDAIFIAPVVATGWEPVLKEAKDAEIPVFLLDRSIDVKDKSLYMTTVTADNILEGKLIGDWLVKEVNGKPCNVVELQGTVGASVAIDRKKGFAEAIKNAPNIKIIRSQSGDFTRSKGKEVMESFIKAENNGKNICMVYAHNDDMVIGAIQAIKEAGLKPGKDILTGSIDGVPDIYKAMMDGEANASVELTPNMAGPAFDALEKYKKDGTMPEKLTLTKSTLYLPDTAKEELEKKKNMGY	5.47 ± 0.2	5.93 ± 0.48	5.06 ± 0.13	3.09 ± 0.11	5.68 ± 1.1	13.35 ± 0.018	5.64 ± 0.063	6.128 ± 0.015	6.11 ± 0.068	12 ± 1.7	11.9 ± 1.6	5.4 ± 0.41
MTTMNPFLVQSTLPYLAPHFDQIANHHYRPAFDEGMQQKRAEIAAIALNPQMPDFNNTILALEQSGELLTRVTSVFFAMTAAHTNDELQRLDEQFSAELAELANDIYLNGELFARVDAVWQRRESLGLDSESIRLVEVIHQRFVLAGAKLAQADKAKLKVLNTEAATLTSQFNQRLLAANKSGGLVVNDIAQLAGMSEQEIALAAEAAREKGLDNKWLIPLLNTTQQPALAEMRDRATREKLFIAGWTRAEKNDANDTRAIIQRLVEIRAQQATLLGFPHYAAWKIADQMAKTPEAALNFMREIVPAARQRASDELASIQAVIDKQQGGFSAQPWDWAFYAEQVRREKFDLDEAQLKPYFELNTVLNEGVFWTANQLFGIKFVERFDIPVYHPDVRVWEIFDHNGVGLALFYGDFFARDSKSGGAWMGNFVEQSTLNKTHPVIYNVCNYQKPAAGEPALLLWDDVITLFHEFGHTLHGLFARQRYATLSGTNTPRDFVEFPSQINEHWATHPQVFARYARHYQSGAAMPDELQQKMRNASLFNKGYEMSELLSAALLDMRWHCLEENEAMQDVDDFELRALVAENMDLPAIPPRYRSSYFAHIFGGGYAAGYYAYLWTQMLADDGYQWFVEQGGLTRENGLRFREAILSRGNSEDLERLYRQWRGKAPKIMPMLQHRGLNI	5.48 ± 0.74	4.65 ± 0.16	4.43 ± 0.24	3.13 ± 0.13	4.53 ± 0.2	11.7 ± 0.94	4.67 ± 0.22	4.335 ± 0.038	5.67 ± 0.52	9.87 ± 0.43	7.84 ± 0.66	6.12 ± 0.066
MKFKTNKLSLNLVLASSLLAASIPAFAVTGDTDQPIHIESDQQSLDMQGNVVTFTGNVIVTQGTIKINADKVVVTRPGGEQGKEVIDGYGKPATFYQMQDNGKPVEGHASQMHYELAKDFVVLTGNAYLQQVDSNIKGDKITYLVKEQKMQAFSDKGKRVTTVLVPSQLQDKNNKGQTPAQKKGN [P0ADV1]	5.44 ± 0.34	6.48 ± 1.1	6.18 ± 0.62	3.06 ± 0.23	5.73 ± 0.082	11.8 ± 0.99		6.38 ± 0.74	5.6321 ± 0.0032	10.5 ± 0.36	9.99 ± 1.6	5.79 ± 0.07
